Data as given in patent US20260159596A1 (published 2026).

Target: T1, recombinant DR3 (DR3-His tag) (human, UniProt Q93038 25-199)
T1 chain: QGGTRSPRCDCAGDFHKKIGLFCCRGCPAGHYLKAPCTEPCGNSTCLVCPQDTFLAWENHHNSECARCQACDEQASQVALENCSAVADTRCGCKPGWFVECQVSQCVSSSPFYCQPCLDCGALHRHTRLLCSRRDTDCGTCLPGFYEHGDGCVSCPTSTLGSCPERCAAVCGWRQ
Experiment: SPR

B1: anti-DR3 6-2 monoclonal antibody (antibody, V domains shown)
VH: QVQLVQSGGGLVQPGGSLRLSCAASGFTFSSYSMNWVRQAPGKGLEWVSYISSSSSTIYYADSVKGRFTISRDNAKNSLYLQMNSLRAEDTAVYYCARWDGYCSGGSCYSGMDYWGQGTLVTVS
VL: not shown
For B1, the Kd was 3.91 nM.

B2: anti-DR3 2-10 monoclonal antibody (antibody, V domains shown)
VH: QVQLVQSGAEVKKPGASVKVSCKASGYTFTSYGISWVRQAPGQGLEWMGWISAYNGNTNYAQKLQGRVTMTTDTSTSTAYMELRSLRSDDTAVYYCASGPDYGMLDYWGQGTLVTVS
VL: EIVMTQSPSSLPASVGDRVTITCQASQDISNYLNWYQQKPGKAPKLLIYDASNLETGVPSRFSGSGSGTDFTFTISSPQPEDIATYYCQQYDNLPLTFGGGTKVEIK
Binder B2 has a Kd of 0.693 nM.

B3: anti-DR3 6-15 monoclonal antibody (antibody, V domains shown)
VH: QVQLVQSGGGLVQPGGSLRLSCAASGFTFSSYSMNWVRQAPGKGLEWVSYISSSSSTIYYADSVKGRFTISRDNAKNSLYLQMNSLRAEDTAVYYCARWDGYCSGGSCYSGMDYWGQGTLVTVS
VL: DIEMTQSPSSLSASVGDKVTITCQASQDISNYLNWYQQKPGKAPKLLIYDASNLETGVPSRFSGSGSGTDSTFTISSLQPEDIATYYCQQYDNLPLTFGGGTKVEIK
With B3 the Kd was 82.4 nM.

B4: anti-DR3 3-18 monoclonal antibody (antibody, V domains shown)
VH: QVQLQQSGPGLVKPSETLSLTCTVSGGSISSSSYYWGWIRQPPGKGLEWIGSIYYSGSTYYNPSLKSRVTISVDTSKNQFSLKLSSVTAADTAVYYCARQVSGPLDYWGQGTLVTVS
VL: DIVMTQSPSSLSASVGDRVTITCRASQGIRNDLGWYQQKPGKAPKLLIYAASSLQSGVPSRFSGSGSGTDFTLTISSLQPEDFATYYCLQDYNYPRTFGQGTKVEIK
Binder B4 has a Kd of 0.0463 nM.

B5: clone 4-4 IgG2 monoclonal antibody (antibody, V domains shown)
VH: EVQLVESGGGLVKPGGSLRLSCAASGFTFSDYYMSWIRQAPGKGLEWVSYISSSSSYTNYADSVKGRFTISRDNAKNSLYLQMNSLRAEDTAVYYCASNVDTAMVGAFDIWGQGTLVTVS
VL: DIEMTQSPSSVSASVGDTVTITCRASQHISNWLAWYQQKPGQAPKFLIYTASNLQSGVPSRFSGSGYGTDFTLTISGLQPEDFATYYCQQADSFPLTFGGGTKVDIK
B5 gave a Kd of 35.8 nM.

B6: clone 4-4 IgG1 monoclonal antibody (antibody, V domains shown)
VH: EVQLVESGGGLVKPGGSLRLSCAASGFTFSDYYMSWIRQAPGKGLEWVSYISSSSSYTNYADSVKGRFTISRDNAKNSLYLQMNSLRAEDTAVYYCASNVDTAMVGAFDIWGQGTLVTVS
VL: DIEMTQSPSSVSASVGDTVTITCRASQHISNWLAWYQQKPGQAPKFLIYTASNLQSGVPSRFSGSGYGTDFTLTISGLQPEDFATYYCQQADSFPLTFGGGTKVDIK
For B6, the Kd was 1.56 nM.

B7: TL1A (tumor necrosis factor-like ligand 1A), His tag (ligand)
chain: LKGQEFAPSHQQVYAPLRADGDKPRAHLTVVRQTPTQHFKNQFPALHWEHELGLAFTKNRMNYTNKFLLIPESGDYFIYSQVTFRGMTSECSEIRQAGRPNKPDSITVVITKVTDSYPEPTQLLMGTKSVCEVGSNWFQPIYLGAMFSLQEGDKLMVNVSDISLVDYTKEDKTFFGAFLL
With B7 the Kd was 426 nM.
